{
  "source": "a protein production outcome set (Wang et al. 2014)",
  "data": [
    {"test": "label from the status in PepcDB records", "values": [
      {"sequence": "MSLQTCVLHRLSLPLKFPMRTAHGHIREKQAILVQLVDADGIEGWSECVALAEPTYTEECTDTAWVMLVHHLVPRFARWLRAASQDQDVDPRTVCEALRDVRGNRMSVAAIEMAVWDWYAARTGQPLVGLLGGGRDRVEVSATLGMSESLDVLIQSVDAAVEQGFRRVKLKIAPGRDRAAIKAVRLRYPDLAIAADANGSYRPEDAPVLRQLDAYDLQFIEQPLPEDDWFDLAKLQASLRTPVCLDESVRSVRELKLTARLGAARVLNVKPGRLGGFGATLRALDVAGEAGMAAWVGGMYETGVGRVHGLIAAALPLMRYATDLGPSDRYFEQDVLKEPIAFVEPGVIQVPQCAGVADWVDRDAVRRFSTATWSVDLRTLEGHHHHHH", "protein production": "not failed"},
      {"sequence": "MSLRAVRLHAKWDPRPEFKLGPKDIEGKLTWLGSKVWRYPEVRVEEVPEPRIEKPTEIIIKVKACGICGSDVHMAQTDEEGYILYPGLTGFPVTLGHEFSGVVVEAGPEAINRRTNKRFEIGEPVCAEEMLWCGHCRPCAEGFPNHCENLNELGFNVDGAFAEYVKVDAKYAWSLRELEGVYEGDRLFLAGSLVEPTSVAYNAVIVRGGGIRPGDNVVILGGGPIGLAAVAILKHAGASKVILSEPSEVRRNLAKELGADHVIDPTKENFVEAVLDYTNGLGAKLFLEATGVPQLVWPQIEEVIWRARGINATVAIVARADAKIPLTGEVFQVRRAQIVGSQGHSGHGTFPRVISLMASGMDMTKIISKTVSMEEIPEYIKRLQTDKSLVKVTMLNEGHHHHHH", "protein production": "not failed"},
      {"sequence": "MSLRVIDTHCDALYKLQAGKGKYTFQDAEELDVNFERLIEAKMLLQGFAIFLDEDIPVEHKWKKAVEQVNIFKQHVLHKGGIIHHVKKWCDLENLPEDKIGAMLTLEGIEPIGRDLDKLTQLLDGGVLSVGLTWNNANLAADGIMEERGAGLTRFGKDIIHLLNERKVFTDVSHLSVKAFWETLEQAEFVIASHSNAKAICSHPRNLDDEQIKAMIEHDAMIHVVFYPLFTTNNGVADTEDVIRHIDHICELGGLKNIGFGSDFDGIPDHVKGLEHVGKYQSFLETLEKHYTKEEIEGFASRNFLNHLPKEGHHHHHH", "protein production": "not failed"},
      {"sequence": "MSLSAKSSLKEVAELAGVGYATASRALSGKGYVSPQTREKVQAAAKELNYVPNQLAKALREHRSALVGVIVPDLSNEYYSESLQTIQQDLKAAGYQMLVAEANSVQAQDVVMESLISIQAAGIIHVPVVGSIAPEGIPMVQLTRGELGPGFPRVLCDDEAGFFQLTESVLGGSGMNIAALVGEESLSTTQERMRGISHAASIYGAEVTFHFGHYSVESGEEMAQVVFNNGLPDALIVASPRLMAGVMRAFTRLNVRVPHDVVIGGYDDPEWYSFVGAGITTFVPPHEEMGKEAVRLLVDLIENPELPTGDVVLQGQVILRGSSTHEGHHHHHH", "protein production": "not failed"},
      {"sequence": "MSLSDQEFDEKYLELSEELKQSEKHKGTLDQGASQFLNAIEFVLRVYRQTEVIYVYAHLKNDQDTGNTDYQALYARASSLFSKVSEAVSWFEPEILQLSDDQIWQYFKEEPKLEVYRHYIQQIVDNRAHVLSAEQESLLAGAGEIFDASSDTFAVLNNADLVFPTIEGENGEIVQLSHGVYGQLLESTDRRVREAAFKGLYSVYEQFRNTFASTLGTHIKGHNFKAKVRNYSSAREASLSNNHIPESVYDTLVDVVNKHLPLLHRYMELRKRLLEVEKLHMYDLYTPVLGEAPITFTYEEAKEKALEALKPMGEEYMAIVEKAFSERWIDVVENKGKRSGAYSSGSYDTNPYILLNWHDTLDQLFTLVHEMGHSVHSYFTRSNQPYVYGDYSIFLAEIASTTNENILTEYLLETEKDPRVRAYVLNHYLDGFKGTVFRQTQFAEFEHFMHTEDEKGVPLTSEYLSDSYGKLNAKYYGPAVEEDPEIKFEWSRIPHFYYNYYVFQYSTGFSAASALAKKILNQEPEALENYLAYLKAGNSDYPVEVMKKAGVDMTQAAYIEDAMSMFEQRLNELEELIDREGHHHHHH", "protein production": "not failed"},
      {"sequence": "MSLSDTIPVFDGHNDFLLRLLRNPANRETIWLKGDGTGHLDLPRMKEGGFAGGFFAIYVPSPQAHDAAHFEAMMDAPPFELPLPPMIRAEQAQPVALAMAGHLLWMERAARGRFKVCRTAAEVRSCHADGIVSGIMHMEGAEAIGADLDALHLFHSLGLRSLGPVWSRPTVFGHGVPFRFPGSPDTGEGLTEAGRRLVAECNRLKIMLDLSHLNEKGFDDVARLSDAPLVATHSNAHAVTPSTRNLTDRQLAMIRESRGMVGLNFATSFLREDGRRSAEMGWEPVLRHLDHLIDRLGEDHVGMGSDFDGATIPQGIADVTGLPALQAAMRAHGYDEPLMRKLCHENWYGLLERTWGEGHHHHHH", "protein production": "not failed"},
      {"sequence": "MSLSHKAWQNAHAMYENDACAKALGIDIISMDEGFAVVTMTVTAQMLNGHQSCHGGQLFSLADTAFAYACNSQGLAAVASACTIDFLRPGFAGDTLTATAQVRHQGKQTGVYDIEIVNQQQKTVALFRGKSHRIGGTITGEAEGGSHHHHHH", "protein production": "not failed"},
      {"sequence": "MSLSINSREVLAEKVKNAVNNQPVTDMHTHLFSPNFGEILLWDIDELLTYHYLVAEVMRWTDVSIEAFWAMSKREQADLIWEELFIKRSPVSEACRGVLTCLQGLGLDPATRDLQVYREYFAKKTSEEQVDTVLQLANVSDVVMTNDPFDDNERISWLEGKQPDSRFHAALRLDPLLNEYEQTKHRLRDWGYKVNDEWNEGSIQEVKRFLTDWIERMDPVYMAVSLPPTFSFPEESNRGRIIRDCLLPVAEKHNIPFAMMIGVKKRVHPALGDAGDFVGKASMDGVEHLLREYPNNKFLVTMLSRENQHELVVLARKFSNLMIFGCWWFMNNPEIINEMTRMRMEMLGTSFIPQHSDARVLEQLIYKWHHSKSIIAEVLIDKYDDILQAGWEVTEEEIKRDVADLFSRNFWRFVGRNDHVTSVKVEQQTEGHHHHHH", "protein production": "not failed"},
      {"sequence": "MSLSLLITSITINTSHLQGMLGFYRIIGFQFTASKVDKGSEVHRAVHNGVEFSLYSIQNPQRSQIPSLQLGFQITDLEKTVQELVKIPGAMCILDPTDMPDGKKAIVLDPDGHSIELCELEGHHHHHH", "protein production": "not failed"},
      {"sequence": "MSLSNSKSTTTKDTVATLPNGASSLTETYGLWSINCGIQEGKKVCFMHRQEVNDQNRVVVAMSVVLNADGVVSGNLTVPFGILVSKPVRLQVDEGKAVIETGIRTCVPAGCIVPIVFDKNYVAALRAGKHLKLAMTIAAPGEPPLNDLFVQLNGFSNALNRLIALQKEGHHHHHH", "protein production": "not failed"},
      {"sequence": "MSLSQNAPKSKGIKREELKKQYEDVEDEEEIGSDDDLTRGKRRKTEKEKQKLEESELVEMKKLENLIFGSLYSPVTFGKEEEEDGSALFHVDRSAVRQIPDYEDDGDDDEELSDEENGQVVAIRKGEAAWEDEEEKQINVDIASVNRLRKLRKEENEGLISGSEYIARLRAHHAKLNPGTDWARPDSQIVDGESSDDDDTQDGGVDDILRTNEDLVVKSRGNKLCAGRLEYSKLVDANAADPSNGPINSVHFHQNAQLLLTAGLDRRLRFFQIDGKRNTKIQSIFLEDCPIRKAAFLPNGSQVIVSGRRKFFYSFDLEKAKFDKIGPLVGREEKSLEYFEVSQDSNTIAFVGNEGYILLVSTKTKELIGTLKMNGSVRSLAFSEDGKHLLSSGGDGQVYVWDLRTMKCLYKGVDEGSTCGTSLCSSLNGALFASGTDRGIVNIYKKSEFVGGKRKPIKTVDNLTSKIDFMKFNHDAQILAIVSTMNKNSVKLVHVPSLTVFSNWPPPNSTMHYPRCLDFSPGSGFMAMGNAAGKVLLYKLHHYQNA", "protein production": "failed"},
      {"sequence": "MSLSRSEEMHRLTENVYKTIMEQFNPSLRNFIAMGKNYEKALAGVTYAAKGYFDALVKMGELASESQGSKELGDVLFQMAEVHRQIQNQLEEMLKSFHNELLTQLEQKVELDSRYLSAALKKYQTEQRSKGDALDKCQAELKKLRKKSQGSKNPQKYSDKELQYIDAISNKQGELENYVSDGYKTALTEERRRFCFLVEKQCAVAKNSAAYHSKGKELLAQKLPLWQQA", "protein production": "not failed"},
      {"sequence": "MSLSSGEHEASRVLRERDYRWEGTEEEAYKAEGTHFSGARRQTLVGRPAGQEAPAFETRYFEVEPGGYTTLERHEHTHVVMVVRGHAEVVLDDRVEPLTPLDCVYIAPHAWHQIHATGANEPLGFLCIVDSDRDRPQRPDADDLARMCADPAVARRIRTEGHHHHHH", "protein production": "not failed"},
      {"sequence": "MSLSTARIMLVDDHPIVREGYRRLIERRPGYAVVAEAADAGEAYRLYRETTPDIVVMDLTLPGPGGIEATRHIRQWDGAARILIFTMHQGSAFALKAFEAGASGYVTKSSDPAELVQAIEAILAGRRAMSPDIAQEIAEERVEGREGHHHHHH", "protein production": "not failed"}
    ]}
  ]
}
